Results: patent publication US20080044360A1 (COLLAGEN MEDICAL, published 2008)
Bridge positions count the residues as written; N and C are the ends. Square brackets hold non-standard residues; d marks the D form. Ends that are not written are not given here.

Experiments:
[1] = biological target: T1, rat collagen, acid soluble, type I, rat tail (Upstate 08-115) (rat, UniProt P02454 152-1207; P02466 86-1125); test: dried collagen assay
T1 construct: tissue extract, gelled and dried in wells; also called dried rat collagen
T1 sequence (P02454 152-1207, chain 1 of 2): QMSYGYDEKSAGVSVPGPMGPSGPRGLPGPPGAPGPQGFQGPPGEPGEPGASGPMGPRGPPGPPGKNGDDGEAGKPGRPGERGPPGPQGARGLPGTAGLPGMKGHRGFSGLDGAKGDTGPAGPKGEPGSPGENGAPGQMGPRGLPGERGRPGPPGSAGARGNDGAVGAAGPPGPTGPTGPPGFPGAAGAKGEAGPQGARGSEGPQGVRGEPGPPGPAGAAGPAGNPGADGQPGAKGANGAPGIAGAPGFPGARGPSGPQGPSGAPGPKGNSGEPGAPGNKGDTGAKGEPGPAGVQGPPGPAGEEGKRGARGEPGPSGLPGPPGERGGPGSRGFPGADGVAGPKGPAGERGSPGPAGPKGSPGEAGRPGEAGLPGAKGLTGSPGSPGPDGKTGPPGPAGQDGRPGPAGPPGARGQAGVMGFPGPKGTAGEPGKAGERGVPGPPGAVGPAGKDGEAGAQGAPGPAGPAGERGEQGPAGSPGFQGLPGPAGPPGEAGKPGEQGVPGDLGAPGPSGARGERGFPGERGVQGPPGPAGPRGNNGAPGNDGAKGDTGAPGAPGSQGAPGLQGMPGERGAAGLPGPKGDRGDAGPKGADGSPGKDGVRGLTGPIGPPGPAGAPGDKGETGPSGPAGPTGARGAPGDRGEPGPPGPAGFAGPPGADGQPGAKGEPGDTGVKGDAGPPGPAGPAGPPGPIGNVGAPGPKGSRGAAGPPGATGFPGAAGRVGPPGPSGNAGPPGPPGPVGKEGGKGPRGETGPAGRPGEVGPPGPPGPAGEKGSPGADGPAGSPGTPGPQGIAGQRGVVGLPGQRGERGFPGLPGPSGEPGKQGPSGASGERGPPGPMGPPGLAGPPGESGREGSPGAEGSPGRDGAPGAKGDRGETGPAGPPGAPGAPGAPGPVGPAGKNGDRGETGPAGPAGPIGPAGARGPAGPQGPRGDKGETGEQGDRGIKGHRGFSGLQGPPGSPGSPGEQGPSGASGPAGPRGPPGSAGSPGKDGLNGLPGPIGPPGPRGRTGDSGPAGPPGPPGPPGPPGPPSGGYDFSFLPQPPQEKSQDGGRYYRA
T1 sequence (P02466 86-1125, chain 2 of 2): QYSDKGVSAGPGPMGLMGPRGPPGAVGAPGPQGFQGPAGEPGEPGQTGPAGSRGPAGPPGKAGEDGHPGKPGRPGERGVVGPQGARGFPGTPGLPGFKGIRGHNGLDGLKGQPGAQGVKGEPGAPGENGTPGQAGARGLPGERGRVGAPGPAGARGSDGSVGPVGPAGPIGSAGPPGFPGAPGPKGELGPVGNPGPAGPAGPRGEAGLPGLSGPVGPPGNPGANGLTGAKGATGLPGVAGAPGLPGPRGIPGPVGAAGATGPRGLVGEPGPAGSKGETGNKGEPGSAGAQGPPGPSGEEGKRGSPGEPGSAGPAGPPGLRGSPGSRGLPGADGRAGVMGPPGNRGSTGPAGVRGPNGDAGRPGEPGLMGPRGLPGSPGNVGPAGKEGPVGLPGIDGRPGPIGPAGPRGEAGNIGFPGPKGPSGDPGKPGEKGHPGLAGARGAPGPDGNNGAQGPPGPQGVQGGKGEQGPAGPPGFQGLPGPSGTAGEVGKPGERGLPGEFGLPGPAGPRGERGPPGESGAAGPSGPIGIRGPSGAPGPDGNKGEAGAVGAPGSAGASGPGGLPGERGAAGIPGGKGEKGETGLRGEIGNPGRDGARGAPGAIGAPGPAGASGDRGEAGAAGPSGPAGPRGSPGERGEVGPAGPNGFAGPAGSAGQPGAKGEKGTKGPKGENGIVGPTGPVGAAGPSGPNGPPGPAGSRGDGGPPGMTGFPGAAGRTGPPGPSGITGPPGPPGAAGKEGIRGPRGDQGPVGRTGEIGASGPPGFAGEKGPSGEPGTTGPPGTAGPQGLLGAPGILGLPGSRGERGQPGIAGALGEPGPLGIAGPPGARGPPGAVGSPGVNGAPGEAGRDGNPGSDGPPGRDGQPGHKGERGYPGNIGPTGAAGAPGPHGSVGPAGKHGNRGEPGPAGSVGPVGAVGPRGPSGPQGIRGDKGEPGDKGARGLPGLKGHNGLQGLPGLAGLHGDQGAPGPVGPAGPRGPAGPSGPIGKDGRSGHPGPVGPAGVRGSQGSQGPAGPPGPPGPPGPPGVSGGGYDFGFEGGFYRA
Experimental: (§1) An additional 90 μL is reserved in a HPLC glass vial as a measure of the total concentration.

[2] = biological target: T2, human collagen type I, acid soluble, extracted from placenta (Sigma C7774) (human, UniProt P02452 162-1218; P08123 80-1119); test: dried collagen assay
T2 construct: tissue extract, gelled and dried in wells; also called dried human collagen; h-Collagen
T2 sequence (P02452 162-1218 limits assumed, chain 1 of 2): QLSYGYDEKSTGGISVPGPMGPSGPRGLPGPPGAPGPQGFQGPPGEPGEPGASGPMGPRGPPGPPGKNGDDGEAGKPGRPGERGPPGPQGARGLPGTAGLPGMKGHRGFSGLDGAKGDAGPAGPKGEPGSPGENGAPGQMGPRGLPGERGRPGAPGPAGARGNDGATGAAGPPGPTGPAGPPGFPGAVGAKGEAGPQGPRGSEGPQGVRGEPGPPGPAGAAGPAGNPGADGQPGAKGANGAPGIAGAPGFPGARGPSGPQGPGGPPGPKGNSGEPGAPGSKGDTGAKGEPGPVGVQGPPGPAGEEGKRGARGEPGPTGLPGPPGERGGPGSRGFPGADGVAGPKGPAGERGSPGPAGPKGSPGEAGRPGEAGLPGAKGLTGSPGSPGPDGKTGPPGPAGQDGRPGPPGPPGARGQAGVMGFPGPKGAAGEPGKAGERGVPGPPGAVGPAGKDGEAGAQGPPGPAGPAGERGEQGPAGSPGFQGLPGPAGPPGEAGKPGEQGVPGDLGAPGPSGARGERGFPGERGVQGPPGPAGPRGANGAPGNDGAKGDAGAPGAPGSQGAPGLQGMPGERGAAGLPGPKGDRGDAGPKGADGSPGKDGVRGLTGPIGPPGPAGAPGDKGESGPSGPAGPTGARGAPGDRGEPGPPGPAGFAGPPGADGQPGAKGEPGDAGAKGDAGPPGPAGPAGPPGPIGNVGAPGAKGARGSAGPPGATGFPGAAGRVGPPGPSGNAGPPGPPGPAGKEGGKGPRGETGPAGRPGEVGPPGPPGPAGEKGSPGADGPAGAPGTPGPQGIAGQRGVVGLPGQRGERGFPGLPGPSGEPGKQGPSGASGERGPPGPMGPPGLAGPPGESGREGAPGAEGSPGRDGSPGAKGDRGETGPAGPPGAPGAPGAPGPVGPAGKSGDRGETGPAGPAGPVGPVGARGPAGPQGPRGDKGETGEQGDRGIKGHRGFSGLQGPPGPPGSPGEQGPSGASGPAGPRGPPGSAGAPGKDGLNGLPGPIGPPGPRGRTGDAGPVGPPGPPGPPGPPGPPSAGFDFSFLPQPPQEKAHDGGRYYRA
T2 sequence (P08123 80-1119 limits assumed, chain 2 of 2): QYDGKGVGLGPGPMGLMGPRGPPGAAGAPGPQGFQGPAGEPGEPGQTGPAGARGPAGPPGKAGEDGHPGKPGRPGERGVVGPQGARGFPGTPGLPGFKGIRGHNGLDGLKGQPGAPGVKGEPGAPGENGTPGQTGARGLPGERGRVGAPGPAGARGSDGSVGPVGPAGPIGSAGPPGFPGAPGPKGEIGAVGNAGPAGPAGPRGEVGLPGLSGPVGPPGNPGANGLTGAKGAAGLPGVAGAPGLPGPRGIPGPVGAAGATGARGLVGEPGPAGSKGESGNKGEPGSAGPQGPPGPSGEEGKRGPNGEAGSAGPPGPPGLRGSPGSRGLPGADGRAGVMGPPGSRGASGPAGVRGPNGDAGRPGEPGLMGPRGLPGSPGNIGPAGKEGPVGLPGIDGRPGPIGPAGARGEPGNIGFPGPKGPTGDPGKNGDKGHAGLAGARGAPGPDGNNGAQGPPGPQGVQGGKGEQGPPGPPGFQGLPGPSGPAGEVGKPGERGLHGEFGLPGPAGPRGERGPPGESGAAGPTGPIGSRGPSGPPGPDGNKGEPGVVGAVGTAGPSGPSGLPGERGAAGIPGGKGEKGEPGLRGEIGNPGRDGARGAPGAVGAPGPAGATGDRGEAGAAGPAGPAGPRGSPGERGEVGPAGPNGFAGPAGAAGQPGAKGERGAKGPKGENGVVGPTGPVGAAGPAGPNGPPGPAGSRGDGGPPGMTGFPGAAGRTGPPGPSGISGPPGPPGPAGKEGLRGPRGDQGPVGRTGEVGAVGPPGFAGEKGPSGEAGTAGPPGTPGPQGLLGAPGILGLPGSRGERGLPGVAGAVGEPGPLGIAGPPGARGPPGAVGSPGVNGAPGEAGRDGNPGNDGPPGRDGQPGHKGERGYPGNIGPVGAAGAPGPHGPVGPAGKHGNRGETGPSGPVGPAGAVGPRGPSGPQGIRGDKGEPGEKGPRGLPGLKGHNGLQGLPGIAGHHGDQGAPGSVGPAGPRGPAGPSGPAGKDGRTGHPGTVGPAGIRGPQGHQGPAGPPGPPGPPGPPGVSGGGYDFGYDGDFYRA
Experimental: as §1

Binder	% bound [1]	% bound [2]
PWTCSGDEYAWHCNY[dE] (disulfide 4-13 (inferred), cyclic, disulfide) [SEQ ID NO 121]	72%	57%
GQWTCSGDAYTWHCNYE (disulfide 5-14 (inferred); not fully specified (C-terminus), cyclic, disulfide) [SEQ ID NO 144]	77%	87%
GQWTCSGDEATWHCNYE (disulfide 5-14 (inferred); not fully specified (C-terminus), cyclic, disulfide) [SEQ ID NO 145]	50%	68%
QWTCSGDEYAWHCNYE (disulfide 4-13 (inferred); not fully specified (N-terminus, C-terminus), cyclic, disulfide) [SEQ ID NO 146]	77%	82%
GQWTCSGAEYTWHCNYE (disulfide 5-14 (inferred), cyclic, disulfide) [SEQ ID NO 143]	51%	66%
GQATCSGDEYTWHCNYE (disulfide 5-14 (inferred), cyclic, disulfide) [SEQ ID NO 139]	0%	1%
GQWTCSGDEYAWHCNY[dE] (disulfide 5-14 (inferred), cyclic, disulfide) [SEQ ID NO 126]	73%	68%
GQWTCAGDEYTWHCNYE (disulfide 5-14 (inferred), cyclic, disulfide) [SEQ ID NO 141]	83%	87%
GQWTCSGDEYTWSCNYE (disulfide 5-14 (inferred), cyclic, disulfide) [SEQ ID NO 127]	73%	80%
GQWTCSGDEYTWHCNY (disulfide 5-14 (inferred), cyclic, disulfide) [SEQ ID NO 123]	72%	59%
GQWTCSGDEY[dA]WHCNA[dE] (disulfide 5-14 (inferred), cyclic, disulfide) [SEQ ID NO 124]	17%	24%
GQWACSGDEYTWHCNYE (disulfide 5-14 (inferred), cyclic, disulfide) [SEQ ID NO 140]	77%	84%
GQWTCSGDEYSWHCNY[dE] (disulfide 5-14 (inferred), cyclic, disulfide) [SEQ ID NO 125]	86%	85%
GQWTCSGDAYTWHCAYE (disulfide 5-14 (inferred), cyclic, disulfide) [SEQ ID NO 128]	72%	80%
GAWTCSGDEYTWHCNYE (disulfide 5-14 (inferred), cyclic, disulfide) [SEQ ID NO 129]	84%	87%
DWTCSGNHLTWYCNYG (disulfide 4-13 (inferred), cyclic, disulfide) [SEQ ID NO 118]	67%	68%
DWTCSGDHLTWHCNYG (disulfide 4-13 (inferred), cyclic, disulfide) [SEQ ID NO 116]	35%	58%
DWTCSGDHLTWKCNYG (disulfide 4-13 (inferred), cyclic, disulfide) [SEQ ID NO 117]	24%	38%

Continued, values first:

% bound [1]	% bound [2]	Binder
81%	87%	GQWTCSGDEYTWHCNYA (disulfide 5-14 (inferred); not fully specified (C-terminus), cyclic, disulfide) [SEQ ID NO 151]
9%	16%	GQWTCSGDEYTWHCNAE (disulfide 5-14 (inferred); not fully specified (C-terminus), cyclic, disulfide) [SEQ ID NO 150]
86%	89%	DWTCS[dY]DEYTWHCNYE (disulfide 4-13 (inferred), cyclic, disulfide) [SEQ ID NO 182]
73%	66%	GQWTCSGDEYTWACNYE (disulfide 5-14 (inferred); not fully specified (C-terminus), cyclic, disulfide) [SEQ ID NO 148]
27%	30%	QWTCSGDEYTWHCN[dY]E (disulfide 4-13 (inferred); not fully specified (N-terminus); printed as QWTCSGDEYTWHCNyE, cyclic, disulfide) [SEQ ID NO 177]
35%	49%	QWTCSGD[dE]YTWHCNYE (disulfide 4-13 (inferred); not fully specified (N-terminus); printed as QWTCSGDeYTWHCNYE, cyclic, disulfide) [SEQ ID NO 170]
75%	81%	DWTCS[dA]DEYTWHCNYE (disulfide 4-13 (inferred), cyclic, disulfide) [SEQ ID NO 179]
86%	87%	DWTCS[dR]DEYTWHCNYE (disulfide 4-13 (inferred), cyclic, disulfide) [SEQ ID NO 181]
31%	46%	[dQ]WTCSGDEYTWHCNYE (disulfide 4-13 (inferred); not fully specified (N-terminus, C-terminus); printed as qWTCSGDEYTWHCNYE, cyclic, disulfide) [SEQ ID NO 164]
72%	81%	DWTCS[dS]DEYTWHCNYE (disulfide 4-13 (inferred), cyclic, disulfide) [SEQ ID NO 180]
82%	82%	GQWTCSGDEYTWHCAYE (disulfide 5-14 (inferred); not fully specified (C-terminus), cyclic, disulfide) [SEQ ID NO 149]
87%	90%	QWTCSGDEYTWHCNY[dE] (disulfide 4-13 (inferred); not fully specified (N-terminus); printed as QWTCSGDEYTWHCNYe, cyclic, disulfide) [SEQ ID NO 178]
8%	9%	QWTCSGDEY[dT]WHCNYE (disulfide 4-13 (inferred); not fully specified (N-terminus); printed as QWTCSGDEYtWHCNYE, cyclic, disulfide) [SEQ ID NO 172]
